# Measured values from paper PMC7898468, “TrkA-mediated endocytosis of p75-CTF prevents cholinergic neuron death upon γ-secretase inhibition” (Life Science Alliance, 2021).
# B1: C101-p75-wt-3xFlag (domain or fragment, rat)
# chain: MVTTVMGSSQPVVTRGTTDNLIPVYCSILAAVVVGLVAYIAFKRWNSCKQNKQGANSRPVNQTPPPEGEKLHSDSGISVDSQSLHDQQTHTQTASGQALKG
# notes: rat p75NTR, transmembrane domain and juxtamembrane region; Forms DTT-sensitive disulfide dimers; also called p75-C101-wt; C101-wt; source: COS1, transiently transfected, purified (anti-FLAG M2 agarose); not shown: 3xFLAG, C-terminal, kept
# Legend:
# [1] = target: HA-p75-CTF (truncated p75NTR construct that mimics the endogenously generated C-terminal fragment), wild type (UniProt P07174); test: non-reducing SDS-PAGE and Western blot; total membranes (and lysates) of HeLa cells transfected with p75-CTF constructs, 16 h with or without 10 uM compound E; sample buffer with 1% beta-mercaptoethanol keeps the C257 disulfide dimers; anti-p75NTR blot; shows only SDS-resistant disulfide dimers
# [2] = target: endogenous p75-CTF of mouse dorsal root ganglia neurons (mouse (endogenous in dorsal root ganglia)); test: non-reducing SDS-PAGE and Western blot; lysate of dorsal root ganglia from P2 mice, 24 h at 37 C with or without compound E (10 uM)
# [3] = target: the molecule itself; test: SDS-PAGE and Western blot with or without DTT; purified C101-p75-3xFLAG substrates, with or without DTT (20 mM), anti-FLAG blot
molecule,measurement,setting,value
"HA-p75-CTF (truncated p75NTR construct that mimics the endogenously generated C-terminal fragment), wild type (from UniProt P07174 245-425) (domain or fragment)",stoichiometry N,[1],2
endogenous p75-CTF of mouse dorsal root ganglia neurons (domain or fragment),stoichiometry N,[2],2
B1,stoichiometry N,[3],2
